First the molecules themselves.
T1: AGL15-His (Arabidopsis thaliana, UniProt Q38847 1-268)
T1 sequence (looked up): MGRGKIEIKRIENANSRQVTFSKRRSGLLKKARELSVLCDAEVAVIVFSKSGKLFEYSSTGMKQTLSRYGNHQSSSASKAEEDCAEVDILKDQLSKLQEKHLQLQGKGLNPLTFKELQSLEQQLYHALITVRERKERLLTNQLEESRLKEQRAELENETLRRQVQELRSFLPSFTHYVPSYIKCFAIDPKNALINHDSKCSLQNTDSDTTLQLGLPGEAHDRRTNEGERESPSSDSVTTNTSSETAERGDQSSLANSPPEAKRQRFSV

T2: AGL15-GST (Arabidopsis thaliana, UniProt Q38847 1-268)
T2 sequence: T1 sequence (looked up)

B1: GST-AGL18 (natural protein, Arabidopsis thaliana, UniProt Q9M2K8 1-256, looked up)
chain: MGRGRIEIKKIENINSRQVTFSKRRNGLIKKAKELSILCDAEVALIIFSSTGKIYDFSSVCMEQILSRYGYTTASTEHKQQREHQLLICASHGNEAVLRNDDSMKGELERLQLAIERLKGKELEGMSFPDLISLENQLNESLHSVKDQKTQILLNQIERSRIQEKKALEENQILRKQVEMLGRGSGPKVLNERPQDSSPEADPESSSSEEDENDNEEHHSDTSLQLGLSSTGYCTKRKKPKIELVCDNSGSQVASD
B2: miR156c CArG I (dsDNA)
DNA 1: AAAAAAATTGCTATTTTTTGAAAATGTTAC
DNA 2: GTAACATTTTCAAAAAATAGCAATTTTTTT
B3: miR156c NC (dsDNA)
DNA 1: TTCAGACATCTGTCCCATTGCATGTAAGAG
DNA 2: CTCTTACATGCAATGGGACAGATGTCTGAA
B4: miR156c CArG II (dsDNA)
DNA 1: TGAATTAATTCTTAAAATTGTGAAATAATT
DNA 2: AATTATTTCACAATTTTAAGAATTAATTCA
B5: miR156a CArG II (dsDNA)
DNA 1: ATATATCTTCCATAATTTTGCAAGTCTTTA
DNA 2: TAAAGACTTGCAAAATTATGGAAGATATAT
B6: miR156a CArG III (dsDNA)
DNA 1: ATAATAATAATCTAATTAAAGGAGATGAGA
DNA 2: TCTCATCTCCTTTAATTAGATTATTATTAT
B7: miR156a CArG I (dsDNA)
DNA 1: TGGTGAAAAACAATTAATAGAAAATTAATT
DNA 2: AATTAATTTTCTATTAATTGTTTTTCACCA
B8: miR156a NC (dsDNA)
DNA 1: TAAGAGAGATAAAGAAAGCGACAAGAGCCA
DNA 2: TGGCTCTTGTCGCTTTCTTTATCTCTCTTA
B9: miR156a CArG IV (dsDNA)
DNA 1: CAAGTTCATTGCCATTTTTAGGTCTCTCTA
DNA 2: TAGAGAGACCTAAAAATGGCAATGAACTTG
B10: miR156c CArG III (dsDNA)
DNA 1: TTGTCGTTGCCGTTTATAGGTTATGAGATT
DNA 2: AATCTCATAACCTATAAACGGCAACGACAA
B11: miR156a CArG V (dsDNA)
DNA 1: CTTTTTTTTGCTTTTTATGGTTATGTTTTT
DNA 2: AAAAACATAACCATAAAAAGCAAAAAAAAG

The target in the first data set is T1, AGL15-His. Description: pull-down.
B1: the binding result was “binds”.

Another data set has as its target T2, AGL15-GST. Nature of the data set: EMSA. (A gel shift assay detects complexes by their altered migration in electrophoresis.)
For B2, the binding result is listed as “no binding”.
Consider B3, for which the binding result was “no binding”.
Take B4: the binding result is on record as “no binding”.
B5: the binding result is “no binding”.
On the same count and under the same terms, under B6 stands “no binding”; under B7, “no binding”; under B8, “no binding”.

The target in another data set is T2, AGL15-GST. Description: competition.
Turning to B9, the binding result is “binds”.
For B10, the binding result is given as “binds”.
On the same count and under the same terms, under B11 stands “binds”.
